Source: paper PMC8409790

Target: FcRn/β2 microglobulin (UniProt P55899)
Test: SPR

FcRn/β2 microglobulin, sequence (P55899 24-365, chain 1 of 2): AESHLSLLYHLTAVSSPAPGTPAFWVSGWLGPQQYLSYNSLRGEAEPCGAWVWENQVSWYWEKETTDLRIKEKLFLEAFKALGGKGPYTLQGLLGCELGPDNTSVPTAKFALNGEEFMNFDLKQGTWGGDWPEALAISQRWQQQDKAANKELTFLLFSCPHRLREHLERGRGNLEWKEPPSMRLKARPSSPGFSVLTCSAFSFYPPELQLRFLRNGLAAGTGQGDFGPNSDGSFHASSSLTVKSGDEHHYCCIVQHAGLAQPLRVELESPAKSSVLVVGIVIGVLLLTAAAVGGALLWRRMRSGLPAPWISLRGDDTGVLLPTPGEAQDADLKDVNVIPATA
FcRn/β2 microglobulin, sequence (P61769 21-119, chain 2 of 2, further chain): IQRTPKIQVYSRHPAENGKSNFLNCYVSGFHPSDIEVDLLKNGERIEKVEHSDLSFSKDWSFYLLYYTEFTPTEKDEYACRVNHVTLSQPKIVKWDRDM

Substance | Kd [µM]
Guselkumab (antibody) | 5
Risankizumab (antibody) | 5
Tildrakizumab (antibody) | 5
Ustekinumab (antibody) | 5
